One series concerns BAZ1A (human (HeLa)). Nature of the series: pull-down TMT-MS titration. To be noted: apparent, Pull-down: 150 mM NaCl (or LiCl), 50 mM Tris pH 8, 0.25% NP-40, 1 mM TCEP, protease inhibitors, 4 C, 2 h, EMSA with lysate in same buffer, RT 15 min, FP in …. (In general: A gel shift assay detects complexes by their altered migration in electrophoresis.)
The target of another series is SMARCA4 (human (HeLa)) (UniProt P51532). The series can be described thus: pull-down TMT-MS titration. To be noted: apparent, Pull-down: 150 mM NaCl (or LiCl), 50 mM Tris pH 8, 0.25% NP-40, 1 mM TCEP, protease inhibitors, 4 C, 2 h, EMSA with lysate in same buffer, RT 15 min, FP in ….
SMARCA4 (human (HeLa)), sequence (P51532 whole entry): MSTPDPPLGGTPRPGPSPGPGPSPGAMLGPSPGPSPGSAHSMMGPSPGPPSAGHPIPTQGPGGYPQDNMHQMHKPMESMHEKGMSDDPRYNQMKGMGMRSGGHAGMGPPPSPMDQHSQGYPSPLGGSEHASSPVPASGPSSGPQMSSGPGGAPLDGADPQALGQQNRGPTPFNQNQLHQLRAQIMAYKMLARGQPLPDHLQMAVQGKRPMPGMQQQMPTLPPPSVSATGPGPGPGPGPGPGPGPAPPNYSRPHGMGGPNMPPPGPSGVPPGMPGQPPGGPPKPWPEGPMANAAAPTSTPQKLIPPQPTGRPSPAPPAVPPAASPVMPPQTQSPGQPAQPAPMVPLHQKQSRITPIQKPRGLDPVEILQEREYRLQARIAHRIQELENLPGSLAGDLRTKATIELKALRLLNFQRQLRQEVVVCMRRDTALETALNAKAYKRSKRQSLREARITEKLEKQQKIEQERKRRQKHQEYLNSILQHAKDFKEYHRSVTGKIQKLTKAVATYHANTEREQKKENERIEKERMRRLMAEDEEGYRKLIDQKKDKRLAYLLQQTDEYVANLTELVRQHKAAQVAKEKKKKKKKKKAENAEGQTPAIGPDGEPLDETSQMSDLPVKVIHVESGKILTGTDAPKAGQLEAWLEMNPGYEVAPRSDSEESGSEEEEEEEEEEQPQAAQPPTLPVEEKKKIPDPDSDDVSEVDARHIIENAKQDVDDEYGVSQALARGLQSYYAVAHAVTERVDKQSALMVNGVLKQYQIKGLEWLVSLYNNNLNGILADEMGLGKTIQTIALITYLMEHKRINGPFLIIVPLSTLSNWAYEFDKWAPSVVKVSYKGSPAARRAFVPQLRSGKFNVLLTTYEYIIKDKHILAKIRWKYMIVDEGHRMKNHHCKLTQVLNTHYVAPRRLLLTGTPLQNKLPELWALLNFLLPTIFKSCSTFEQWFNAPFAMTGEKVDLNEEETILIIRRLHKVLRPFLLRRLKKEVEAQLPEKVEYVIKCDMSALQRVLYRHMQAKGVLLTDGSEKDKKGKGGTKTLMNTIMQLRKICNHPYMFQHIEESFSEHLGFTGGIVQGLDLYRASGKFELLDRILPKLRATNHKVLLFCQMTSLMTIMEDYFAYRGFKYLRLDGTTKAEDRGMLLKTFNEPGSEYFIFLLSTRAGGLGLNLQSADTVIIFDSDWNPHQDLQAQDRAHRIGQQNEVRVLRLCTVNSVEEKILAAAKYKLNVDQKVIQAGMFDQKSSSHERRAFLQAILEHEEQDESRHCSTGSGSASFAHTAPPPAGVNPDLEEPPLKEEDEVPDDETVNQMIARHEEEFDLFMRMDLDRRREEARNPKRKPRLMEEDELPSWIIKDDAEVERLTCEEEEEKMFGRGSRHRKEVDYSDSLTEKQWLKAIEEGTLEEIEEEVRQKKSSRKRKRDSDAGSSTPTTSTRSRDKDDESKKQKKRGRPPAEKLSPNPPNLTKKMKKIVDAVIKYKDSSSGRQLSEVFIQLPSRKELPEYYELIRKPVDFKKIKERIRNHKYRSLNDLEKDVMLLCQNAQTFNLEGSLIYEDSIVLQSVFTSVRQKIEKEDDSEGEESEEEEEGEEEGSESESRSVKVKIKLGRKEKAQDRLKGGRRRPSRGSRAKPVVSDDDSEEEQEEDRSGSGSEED
The target in the next series is SMARCA5 (human (HeLa)) (UniProt O60264). The series can be described thus: pull-down TMT-MS titration. To be noted: apparent, Pull-down: 150 mM NaCl (or LiCl), 50 mM Tris pH 8, 0.25% NP-40, 1 mM TCEP, protease inhibitors, 4 C, 2 h, EMSA with lysate in same buffer, RT 15 min, FP in ….
SMARCA5 (human (HeLa)), sequence (O60264 2-1052): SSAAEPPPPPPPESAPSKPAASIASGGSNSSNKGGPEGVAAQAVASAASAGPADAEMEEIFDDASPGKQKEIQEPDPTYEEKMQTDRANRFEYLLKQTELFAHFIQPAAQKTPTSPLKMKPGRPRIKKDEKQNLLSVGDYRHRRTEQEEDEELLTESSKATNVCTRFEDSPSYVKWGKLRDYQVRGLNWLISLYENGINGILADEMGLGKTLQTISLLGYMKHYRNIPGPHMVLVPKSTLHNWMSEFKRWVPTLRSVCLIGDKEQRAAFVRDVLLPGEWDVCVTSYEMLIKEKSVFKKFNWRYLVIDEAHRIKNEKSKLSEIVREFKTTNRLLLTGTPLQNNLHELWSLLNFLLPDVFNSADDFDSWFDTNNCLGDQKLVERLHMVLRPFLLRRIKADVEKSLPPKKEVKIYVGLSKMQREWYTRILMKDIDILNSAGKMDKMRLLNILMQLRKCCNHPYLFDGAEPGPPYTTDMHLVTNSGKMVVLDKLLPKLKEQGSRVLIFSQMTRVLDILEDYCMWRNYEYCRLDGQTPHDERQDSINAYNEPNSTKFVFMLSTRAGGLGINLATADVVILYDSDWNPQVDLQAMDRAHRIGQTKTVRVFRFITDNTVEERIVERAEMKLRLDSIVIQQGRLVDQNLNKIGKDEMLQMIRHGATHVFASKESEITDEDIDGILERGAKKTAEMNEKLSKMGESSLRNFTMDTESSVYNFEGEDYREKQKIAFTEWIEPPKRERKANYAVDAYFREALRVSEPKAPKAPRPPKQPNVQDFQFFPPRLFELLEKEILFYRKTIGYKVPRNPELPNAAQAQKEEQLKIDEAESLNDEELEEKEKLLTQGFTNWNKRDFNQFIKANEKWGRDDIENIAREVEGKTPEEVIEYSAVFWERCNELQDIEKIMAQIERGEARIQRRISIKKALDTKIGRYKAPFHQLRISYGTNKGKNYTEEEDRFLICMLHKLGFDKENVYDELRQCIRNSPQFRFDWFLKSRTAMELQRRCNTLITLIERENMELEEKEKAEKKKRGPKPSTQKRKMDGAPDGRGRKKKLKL
A further series relates to BPTF (human (HeLa)). Nature of the series: pull-down TMT-MS titration. The note with it: apparent, Pull-down: 150 mM NaCl (or LiCl), 50 mM Tris pH 8, 0.25% NP-40, 1 mM TCEP, protease inhibitors, 4 C, 2 h, EMSA with lysate in same buffer, RT 15 min, FP in ….
For the next series, the system named is SMARCA2 (human (HeLa)). Nature of the series: pull-down TMT-MS titration. The note with it: apparent, Pull-down: 150 mM NaCl (or LiCl), 50 mM Tris pH 8, 0.25% NP-40, 1 mM TCEP, protease inhibitors, 4 C, 2 h, EMSA with lysate in same buffer, RT 15 min, FP in ….
In a further series the test system is BAZ1B (human (HeLa)). Nature of the series: pull-down TMT-MS titration. To be noted: apparent, Pull-down: 150 mM NaCl (or LiCl), 50 mM Tris pH 8, 0.25% NP-40, 1 mM TCEP, protease inhibitors, 4 C, 2 h, EMSA with lysate in same buffer, RT 15 min, FP in ….
In series [1] the target is GST-KLF4-ZF (UniProt O43474). The series can be described thus: fluorescence polarization. The note with it: Pull-down: 150 mM NaCl (or LiCl), 50 mM Tris pH 8, 0.25% NP-40, 1 mM TCEP, protease inhibitors, 4 C, 2 h; EMSA with lysate in same buffer, RT 15 min; FP in ….
GST-KLF4-ZF, sequence (O43474 whole entry): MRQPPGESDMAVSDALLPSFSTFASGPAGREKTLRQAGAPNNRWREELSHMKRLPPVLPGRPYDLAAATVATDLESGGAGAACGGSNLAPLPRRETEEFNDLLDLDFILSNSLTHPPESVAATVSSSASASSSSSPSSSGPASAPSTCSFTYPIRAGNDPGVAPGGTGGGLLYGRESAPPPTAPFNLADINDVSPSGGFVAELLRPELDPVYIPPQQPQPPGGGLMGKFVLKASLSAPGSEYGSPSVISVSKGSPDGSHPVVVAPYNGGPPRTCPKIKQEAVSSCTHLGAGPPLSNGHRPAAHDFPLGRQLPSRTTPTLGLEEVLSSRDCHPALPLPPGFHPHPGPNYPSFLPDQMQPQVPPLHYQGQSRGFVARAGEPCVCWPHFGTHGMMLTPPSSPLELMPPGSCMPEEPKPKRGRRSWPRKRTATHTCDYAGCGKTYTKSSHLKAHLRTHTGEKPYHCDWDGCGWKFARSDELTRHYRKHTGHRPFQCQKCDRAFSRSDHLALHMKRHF
Series [2] deals with GST-KLF4-ZF (UniProt O43474). The series can be described thus: fluorescence intensity (de-quenching). To be noted: Pull-down: 150 mM NaCl (or LiCl), 50 mM Tris pH 8, 0.25% NP-40, 1 mM TCEP, protease inhibitors, 4 C, 2 h; EMSA with lysate in same buffer, RT 15 min; FP in ….
In the next series the test system is C17orf49 (human (HeLa)). Nature of the series: pull-down TMT-MS titration. To be noted: apparent; histone H3K4me3; Pull-down: 150 mM NaCl (or LiCl), 50 mM Tris pH 8, 0.25% NP-40, 1 mM TCEP, protease inhibitors, 4 C, 2 h; EMSA with lysate in same buffer, RT 15 min; FP in ….
The next series relates to PHF10 (human (HeLa)). The series can be described thus: pull-down TMT-MS titration. The note with it: apparent; histone H3K9ac K14ac; Pull-down: 150 mM NaCl (or LiCl), 50 mM Tris pH 8, 0.25% NP-40, 1 mM TCEP, protease inhibitors, 4 C, 2 h; EMSA with lysate in same buffer, RT 15 min; FP in ….
The target in series [3] is H3K9AcK14Ac modified di-nucleosome (human) (UniProt P68431). Nature of the series: affinity purification with mass spectrometry; titration series of ten concentrations of biotinylated recombinant di-nucleosome on streptavidin beads; 100 ug HeLa nuclear lysate per pulldown in PBB (150 mM NaCl, 50 mM Tris pH 8, 0.25% NP-40, 1 mM TCEP), 2 h at 4 °C; 10-plex TMT, SPS-MS3; apparent Kd from a Hill-like fit, triplicate, r^2 > 0.9.

The text below walks through data of publication PMC5916898.

PHF10, sequence (Q8WUB8 whole entry): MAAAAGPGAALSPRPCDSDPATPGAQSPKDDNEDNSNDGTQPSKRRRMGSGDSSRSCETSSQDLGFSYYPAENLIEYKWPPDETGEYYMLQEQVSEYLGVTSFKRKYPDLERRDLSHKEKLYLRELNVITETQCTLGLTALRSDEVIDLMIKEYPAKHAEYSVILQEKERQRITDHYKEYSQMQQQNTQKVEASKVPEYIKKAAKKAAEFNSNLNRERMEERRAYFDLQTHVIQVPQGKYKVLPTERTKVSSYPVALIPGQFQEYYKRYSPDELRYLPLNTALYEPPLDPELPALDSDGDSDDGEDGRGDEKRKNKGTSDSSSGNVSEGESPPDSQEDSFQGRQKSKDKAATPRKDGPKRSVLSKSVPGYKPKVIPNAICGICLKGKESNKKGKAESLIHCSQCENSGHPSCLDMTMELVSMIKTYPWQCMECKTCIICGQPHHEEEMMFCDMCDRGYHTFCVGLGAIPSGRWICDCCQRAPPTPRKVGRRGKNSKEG

As to unmodified H3 di-nucleosome, the Kd was found to be 151 nM in the series on BAZ1A (human (HeLa)); 174 nM in the series with SMARCA4 (human (HeLa)); 102 nM in the series with SMARCA5 (human (HeLa)); 53.2 nM in the series on BPTF (human (HeLa)); 162 nM in the series on SMARCA2 (human (HeLa)); 122 nM in the series on BAZ1B (human (HeLa)).

Take “GAGAGCCCCGCCCCCTGGCT (double strand) [SP/KLF wild-type Cy5]”: the Kd with GST-KLF4-ZF [1] was determined as 21.8 nM; with GST-KLF4-ZF [2], 20.2 nM.

In the case of H3K4me3 di-nucleosome, the Kd in the series with BAZ1A (human (HeLa)) (histone H3K4me3) was determined as 100 nM; with SMARCA4 (human (HeLa)) (histone H3K4me3) it was 123 nM; with SMARCA5 (human (HeLa)) (histone H3K4me3) it was 82.4 nM; with BPTF (human (HeLa)) (histone H3K4me3) it was 54 nM; in the series with C17orf49 (human (HeLa)), 68.7 nM; in the series with SMARCA2 (human (HeLa)) (histone H3K4me3) it was 51.8 nM. Besides, in the series with BAZ1B (human (HeLa)) (histone H3K4me3), the Kd stood at 90.6 nM.

H3K9AcK14Ac di-nucleosome: the Kd in the series on PHF10 (human (HeLa)) came to 35 nM; in the series with BAZ1A (human (HeLa)) (histone H3K9ac K14ac) it was 114 nM; in the series with SMARCA4 (human (HeLa)) (histone H3K9ac K14ac) it was 68.7 nM; with SMARCA5 (human (HeLa)) (histone H3K9ac K14ac), 52.6 nM; in the series on BPTF (human (HeLa)) (histone H3K9ac K14ac), 27.9 nM; in the series on SMARCA2 (human (HeLa)) (histone H3K9ac K14ac), 35.9 nM. For the same substance, the Kd in the series on BAZ1B (human (HeLa)) (histone H3K9ac K14ac) came out at 15 nM.

Take “PHF10 (from UniProt Q8WUB8 1-498) (natural protein)”: in series [3], the Kd is 35 nM.
